Experimental data taken from the DeepSol protein solubility set.

assay: soluble on expression in E. coli; label from the status in PepcDB or PDB records

Row | Sequence | soluble on expression in E. coli
1 | MSFQEIPIIDLQEAFDPATRSKFLEEVRDAIINVGFLLLKNYESLGPTEEDLQSIKQQAIEFFALPAKEKLQCEMLNSPHFLGYTRLANEITASHTDWREQIDLATELPAPKEGEPLYKNIEGPNLWPNPEVIPKFRPTIERFIEKMTALSNVFKDLVAESIGVDPKALNRYFKENQQCKMKLIAYPDVSELDGTKSAALDDTPETNQGVEPHRDSDLITYIYQATEHQNSLQVQNFQGHWITVPNIPGHLVVNNGQTLQAITGGVAKATIHRVLVPEKGTGTRISIPFFQTIDLDSSKGVVDNLPQEVIDLKNERDKKIKDWGVDTGFQFEPDVSKEPIGHAVFRNRIKSHQDVAKKWYPDVLKSVLQEYTH | soluble
2 | MSFQLDQSTSVIKTAPPGRLEFKNEPIDIASSNIQDLAKMQTLDGYYQQTSLQLPQSQQYHRMYENVYNNQQILYAQTQNFQYPSTLLTNGSLAQTEWRGQQMDTSAYSNTGYSRSSTSQQPQYTQQVTENERIVYKPVDMPSPVDSGIGGDISILNPKEEFFTSADGGSMLERSSERTLSHRDSPLVIPKLYNNLGFQYVLEAPISTSVRRDDDRMTYVNKGQFYTVSLEYTPDLNKCLKSQTVKSQLMVVFREDKTYEEEIKTWQSWHARQHVSKQRILEIDSKNSSGMIGQIEEIGNNAVQFYWNPSDPSGVRISIAVQCLSTDFSTQKGVKGLPLHVQIDTYDGENDKVPFHRGYCQIKVFCDKGAERKLRDEDKRAQKRKVQEYTAGALPGGRKKSDGEYHDQCERSEFYHMRELDKPAALFIAPEEFEPRYVDSTSLSFDMSEIEPIPTKRPRTSERIMLYVRKRDEQIYQPLHVVPASLSGLALAIANKFGADPDKMSGVYKRCAKGITVKVDDEMLRLYCNEDTFIIDVEHATDGSTAATLIEVAPTNPNSYSNS | not soluble
3 | MSFVQIRHISSQINRKTVSIVGSGPSGFYTAYHLLKKSPIPLNVTIWEKLPVPFGLSRYGVAPDHPEVKNCEETFTTCAEEFSSPTNQKHKFSFVGGITIGKEILLKELLDNQDAVILSYGCTGDRKLNIPGELGTKGVFSSREFVNWYNGHPDFAKDKRFTDFDWSKVSKVGIIGNGNVALDITRVLISNQIDEIWENTDISSLALNLLRRAPVKDVKLIARRDFVHSKFTNKELRELWELEKYGIRGRIDPKFFQKEMFDPSKYDRAFNRRVEMCSEYLKPFNERSKKNYKKAPPPSSGYDKFWELDYLKTPLKINRDDFGAINSLSLCNNRLNEDNSLQPLKDVNNIMTYKVDLLITSLGYAGVPMPEFSKLSIGFDKDHIANKQGRVLTSSGEIFPHLYASGWIRKGSQGVIASTMQDAFEVGDRVIQDLVVSGALSLENSIDLSNIKHTTWKDWERINKKELLRGKKEHKTRSKFLTFEELWNGVEGI | soluble
4 | MSFVQPGLAQEKERMWRTLTVSGRGVESIPTTLSEVSLGVEIQGKTAQEVQHEAARRSSAVVALLKSRNVEKLQTTGIRLNPVYSYNNNVQRITGYAASNTVNFRIATEKAGTLLDEAVKAGATQINGISFVATDEAIASARQQALKEATQDAQQQASAVFSSLGFQAKEVVSIQVGGATAPPPPILYRAEAAKLSSADASTPVIGGEQQVEASVTLQISYLEHHHHHH | soluble
5 | MSGEEKEKVKILHVANISTSATRDHIYNMFNYLGKIQDLKVYPSEGNITANTLLKTAFIKFDDERCVEVAQHLTNTVVIDCAIVCLPYPNPVIPDEESFFNSGGSTTAGQRQLPPHVTNKIQESDDGSALLITVDPTLEQLGLPAYPPLPADTDSAKVEEIRRTVYVGNLPKGVDGNEVLELFNMYFGEVMYARMASGPDALPCAYAYVEFSQQASVCNALQNDGFEFKERPLKIQHSRVAIIKPQAKTDEQALGEIEEAIRMGRNGDDRDRRRSRSPRRRRSPSPRRRRDSRDRDRDRDRDRRRSRDRRSRSRDRDRDRDRKRSRSRDRKRRSRSRDNKDRDRKRSRSRDRRRRSKSRDRKRERSRSRSKDRKRDKKRSRSRSPEKRRDKEDRKTEKKENENESSLREKLLEKKAARKDSSDDEWEEKPTPTNGEVKNEEIGNGDVVMASE | soluble
6 | MSGEKIDITPKKDGGVLKLIKKEGQGVVKPTTGTTVKVHYVGTLENGTKFDSSRDRGDQFSFNLGRGNVIKGWDLGVATMTKGEVAEFTIRSDYGYGDAGSPPKIPGGATLIFEVELFEWSAEDISPDRDGTILRTIIVEGSKNSFPNDTSKVLAHCVGTYQGTEFYNREVNFHIGEGSEEGLPEGVERALRRFQLGEKSKIEIRGHKYTYGNSPPAGSNIPVNATLEFTIFLKEFEKVPATWEMTAEEKLDAAKQAKDRGTMYLQKGNLKLAYNKYKRAEEVLEYEKSTDPEKMAERETILNGAYLNLSLVCSKQNEQLECIKWCDKVLETKPGNVKALYRKATALLTMNEVRDAMKLFEKIVEVEPENKAAAQQIIVCRNTIREQNERDKKRFKNLFAKISTEEDKPTNTVEDEDEIVASTSGSSTSNA | soluble
7 | MSGIWGNNLKVSIFGESHGNAIGINIDGLPSGIELDLDKIDKEMKRRAPGKNSISTSRNESDIPEILSGYFNGRTTGTPLCAIIRNSDTRSKDYGELKNLMRPGHADFTGNVRYSGFNDYRGGGHFSGRITAPLVFCGAICKQILSQKGIEIGAHIKKIKNIEDMSFDYVNISKQQLSNLQTLELPLLDLSKEEAMKNTIIDAKNQGDSVGGIIECAVVGINVGLGNPFFDSVESTLSHLLFSVPAVKGVEFGLGFELADMYGSQSNDEMYYEGNQVKSKTNNNGGIIGGITTGMPIIFKVAIKPTPSISRQQNTVNIKDKKDDILYIKGRHDPCIVQRAIPVIEAVTAIGIFDLMKGR | not soluble
8 | MSGMWLWASVSPESTGIKMSESFAELFEESLKTLNLQPGAIITGIVVDIDGDWVTVHAGLKSEGVIPLEQFYNEAGELTIKVGDEVHVALDAVEDGFGETKLSREKAKRAECWIVLEAAFAAEEVVKGVINGKVKGGFTVDVNGIRAFLPGSLVDVRPVRDTTHLEGKELEFKVIKLDQKRNNVVVSRRSVLEAENSAEREALLETLQEGQQVKGIVKNLTDYGAFVDLGGIDGLLHITDMAWKRIKHPSEIVNVGDEVDVRVLKFDRERNRVSLGLKQMGEDPWVAITARYPEGTRVQARVTNLTDYGCFAELEEGVEGLVHVSEMDWTNKNIHPSKVVQVGDEVEVMVLDIDEERRRISLGIKQCKSNPWEDFSGQFNKGDKITGTIKSITDFGIFIGLDGGIDGLVHLSDISWNETGEEAVRRFKKGDELETVILSVDPERERISLGIKQLEDDPFSNFVAVNDKGAIVKGIVKEVDAKGAIVTLADDIEATLKASEISRDRVEDARNVLKEGEEIEAKIISVDRKSRVISLSIKSKDDAEEREAIQSLKNAPEAAADTTMAALLREAMAKQNLEHHHHHH | soluble
9 | MSGSHHHHHHSSGIEGRSEVVMENVTAFWEEGFGELFEKAKQNNNNRKTSNGDDSLSFSNFSLLGTPVLKDINFKIERGQLLAVAGSTGAGKTSLLMMIMGELEPSEGKIKHSGRISFCSQFSWIMPGTIKENIIFGVSYDEYRYRSVIKACQLEEDISKFAEKDNIVLGEGGITLSGGQRARISLARAVYKDADLYLLDSPFGYLDVLTEKEIFESCVCKLMANKTRILVTSKMEHLKKADKILILHEGSSYFYGTFSELQNLQPDFSSKLMGCDSFDQFSAERRNSILTETLHRFSLEGDAPVSGGGGSGGGGSGGQMTVKDLTAKYTEGGNAILENISFSISPGQRVGLLGRTGSGKSTLLSAFLRLLNTEGEIQIDGVSWDSITLQQWRKAFGVIPQKVFIFSGTFRKNLDPYEQWSDQEIWKVADEVGLRSVIEQFPGKLDFVLVDGGCVLSHGHKQLMCLARSVLSKAKILLLDQPSAHLDPVTYQIIRRTLKQAFADCTVILCEHRIEAMLECQQFLVIEENKVRQYDSIQKLLNERSLFRQAISPSDRVKLFPHRNSSK | soluble
10 | MSGTKVPSLPKGKEKPCVVTFATQSDRSNEPPPQPRVRKVTTIINTLGVVVRNTTTEIGVWVFTSCVEVSFPRSNSPIFSNFTLGTWMIVGLYPDATVASCSPWPLILKAYEMSVSYGTVFMKRKASELCHEKTVLYSEVVVPLVNPYSNMSYFERDPHLTAELYMIPGFGRVLGSSAYRQYLEDNRDNVSFIVQYCGGSLRGCSWIMSVVDGKAQTDGEFSDKDLREIAEFIRERHNKENESPPLPSNSIARHAGFVTEVFPQKNYLYCWSPQVSLEADHTAKFPQPPKHREVDSPMLSPLVGQWIQFDVQSKDLDKYMSTRSGYRLSIQEYLPINSPCGVGVVQCGKIVRVMISCILVKSTDHPMLFELQMFGPVIDKKSSLISGAFMQIVLEKTSSRIRRMSGVCWRVIYSLIVSGAENMVENSQSVRIEAISQRDAMETSHIIPIEKRTITNNTGVTTLKYQQPHQNPHYQEQRRDYYMGNNIQIQTAYNSTQLRKYQPKPKKFSSYTGESLEGHALVEKIMAHAKTGILWFFDNYNSSVHFIFDDFELNVGDYAYVKLIQKKEETAHLQFRWKWISGTKKLSPFNCRIDLFQLFIEEQVSYKSKDMLNRNTYTSKNFPIIFDADGIIKNPIPGAIYCVVILRKKIQVTQTESPTHKYQWIIDSAQSNPFIITEYYNPHNAFNRSFIASKQFSSSAALSTDSKKGSSGSEKSSTSPPLKSLTPPSDE | not soluble
11 | MSGVYDSQADIYLDARPTYPADWYSKLAALSHRHNLAWDAGTGNGQAAIGIAEHYERVVATDVSETMLNLGKPHPKVTYHHTPSSMTEDEMVDLIGGENSVDLITVATAVHWFDLPRFYAIANRLLRKPGGIIAVWSYNTDMVVNPEFDSVMTRFIAETLPYCKFPESQYFLDGYKTLPFPFESVGLGSEGKPMELEMKKTVSFEGFLRMLRSWSAVGAAKEKGVDLLSDNVVKELETAWGGYELVRTIVYKTFMLAGTVP | soluble
12 | MSHLLTMSELSEVEISEILKDAEDFANGKESKTTEQTFVANLFFENSTRTRFSFEVAEKRLGLDVLNFSADASSVQKGETLYDTIRTLESIGTKAVVIRHEQDRYFDELKDQVNIPILNAGDGCGNHPTQCLLDLLTIKQEFGRFEGLKIAIVGDVRHSRVARSNAEALTKLGATIYFASPEEWKDEDNTFGTYKPLDELVPEVDVMMLLRVQHERHDHYETDIMKEYHEKHGLTVEREKRMKEGSIIMHPAPVNRDVEIASELVECERSRIFKQMENGVYVRMAVLKRALPNVLGGMKHELFV | not soluble
13 | MSHLNYNHLYYFWMVCKQGSVTKAADALFLTPQTVTGQIKALEDRLDGKLTKRNGRSIEPTELGQLVFKYADRMFGLSYEMLDIVNYSQRSNLLFDVGVADALSKRLVSKILLTSVPGDNRIHLRCFESTHEMLLEQLAQHKLDMILSDCPVDSSQSPGLFSKKLGESRMSFFSFGDVDFAPFPAVLQSKKLLVPGSRTAMGRKVRQWFDRQGLQPHILGEFDDSALMKAFAIYHSDAVFMAPSFYVSEVDAESSLKLIGHVDEIKEEYYVIFAERMIQHPAVKNVCDADFTNLFL | not soluble
14 | MSHPSHVRALCASLCLGAGLPVHAGHVHAGQGFLEDAKASLTARNFHLHRNFVGDASQGKAEEWTQSFILDARSGFTQGSVGFGLDVLGLYSLKLDGGKGTAGTQLLPIHDDGRPADDFGRLAVAGKLRVSNSELKIGEWMPVLPILRSDDGRSLPQTFRGGQLSANEIAGLTLYAGQFRGNSPRNDASMQDMSLFGRPAATSDRFDFAGGEYRFNGERSLLGLWNAELKDIYRQQYLQLQHSQPLGDWLLGANLGGFRGRDAGSARAGKLDNRTVSALFSARYGLHTLYLGLQKVSGDDGWMRVNGTSGGTLANDSYNASYDNPGERSWQLRYDFDFVGLGLPGLTFMTRYLHGDHVRLAGVTDDGSEWGRESELGYTLQSGAFKRLNVRWRNSSQRRDWGSNTRFDENRLIVSYPLSLL | not soluble
15 | MSHQDDYLSVEELIEIQKEETRDIIQALLEDGSDPDALYEIEHHLFAEDFDKLEKAAVEAFKMGFEVLEAEETEDEDGNKLLCFDATMQSALDAKLIDEQVEKLVNLAEKFDIIYDGWGTYYEGLEHHHHHH | soluble
